According to paper doi:10.64898/2025.12.30.697132:
Like-named read-outs stand apart in the source and are kept apart here.

Columns and labels:
[1] = target: XCL1 R23A,R43A (human) (UniProt P47992); test: 19F NMR
[2] = target: XCL1 R23A,R43A (human) (UniProt P47992); test: 19F NMR; remark: listed apart in the source

With “XCL1 R23A,R43A (from UniProt P47992 22-93) (domain or fragment)” the percent of the protein in the dimer fold [1] was 26% and the percent of the protein in the dimer fold [2] was 20%.
